Test results from US20180155451A1 (published 2018).
Changes are numbered by the printed parent chain. In names and notes the source's numbering stands. Where two headings read alike, the source gives them in different places. One block for each binder: values may come before it.

Experiments:
FcgRIIIa F [1] = target: T1, FcgRIIIa F (human, UniProt P08637 17-208); test: SPR (Biacore), antibody captured on chip, FcgR extracellular domain as analyte
T1 construct: extracellular domain; also called FcγRIIIa F; not shown: His tag attached to the C terminus

FcgRIIa R [2] = target: T2, FcgRIIa R (human, UniProt P12318 34-217); test: as above
T2 construct: extracellular domain; also called FcγRIIa R; FcγRIIa type R; not shown: His tag attached to the C terminus
T2 sequence (looked up): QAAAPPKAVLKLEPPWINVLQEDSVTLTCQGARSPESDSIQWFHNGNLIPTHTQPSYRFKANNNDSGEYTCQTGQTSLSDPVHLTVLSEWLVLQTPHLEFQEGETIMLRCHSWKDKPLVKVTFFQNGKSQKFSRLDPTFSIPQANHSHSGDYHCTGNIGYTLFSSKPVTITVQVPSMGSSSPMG

FcgRIIIa V [3] = target: T3, FcgRIIIa V (human, UniProt P08637 17-208); test: as above
T3 construct: extracellular domain; also called FcγRIIIa V; not shown: His tag attached to the C terminus

FcgRIIa H [4] = target: T4, FcgRIIa H (human, UniProt P12318 34-217); test: as above
T4 construct: extracellular domain; also called FcγRIIa H; FcγRIIa type H; not shown: His tag attached to the C terminus
T4 sequence (looked up): T2 sequence (looked up) with R134H

FcgRIa [5] = target: T5, FcgRIa (human, UniProt P12314 16-292); test: as above
T5 construct: extracellular domain; Expressed in FreeStyle293 cells and purified; used as analyte in Biacore; also called FcγRIa; FcγRI; not shown: His tag attached to the C terminus

FcgRIIb [6] = target: T6, FcgRIIb (human, UniProt P31994 43-217); test: as above
T6 construct: extracellular domain; Expressed in FreeStyle293 cells and purified; used as analyte in Biacore; also called FcγRIIb; CD32B; not shown: His tag attached to the C terminus
T6 sequence (looked up): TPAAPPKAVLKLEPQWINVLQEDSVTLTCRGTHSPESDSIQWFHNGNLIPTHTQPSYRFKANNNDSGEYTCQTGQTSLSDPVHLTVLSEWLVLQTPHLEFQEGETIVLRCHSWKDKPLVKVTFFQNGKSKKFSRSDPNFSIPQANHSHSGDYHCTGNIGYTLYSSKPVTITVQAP

FcgRIIIa F [7] = target: T1, FcgRIIIa F; test: as above; remark: listed apart in the source
FcgRIIa R [8] = target: T2, FcgRIIa R; test: as above; remark: listed apart in the source
FcgRIIIa V [9] = target: T3, FcgRIIIa V; test: as above; remark: listed apart in the source
FcgRIIa H [10] = target: T4, FcgRIIa H; test: as above; remark: listed apart in the source
FcgRIa [11] = target: T5, FcgRIa; test: as above; remark: listed apart in the source
FcgRIIb [12] = target: T6, FcgRIIb; test: as above; remark: listed apart in the source
FcgRIIIa F [13] = target: T1, FcgRIIIa F; test: as above; remark: listed apart in the source
FcgRIIa R [14] = target: T2, FcgRIIa R; test: as above; remark: listed apart in the source
FcgRIIIa V [15] = target: T3, FcgRIIIa V; test: as above; remark: listed apart in the source
FcgRIIa H [16] = target: T4, FcgRIIa H; test: as above; remark: listed apart in the source
FcgRIa [17] = target: T5, FcgRIa; test: as above; remark: listed apart in the source
FcgRIIb [18] = target: T6, FcgRIIb; test: as above; remark: listed apart in the source
[19] = target: T7, FcγRIIIa extracellular domain with C-terminal His tag (human, UniProt P08637 17-208); test: SPR (Biacore), antibody captured on antigen peptide chip, FcγR as analyte
T7 construct: extracellular domain; also called FcgRIIIa; CD16A
Method: Specifically, GpH7-TA7 and GpH7-TA45 (SEQ ID NO: 32) resulting from the introduction of L234Y, G236W, and S298A into GpH7-A5 and GpH7-B3, respectively, were prepared according to the method described in Reference Example 1. […] These antibodies were compared for the FcγRIIIa binding according to the method described in Reference Example 2 (Table 10).
(§1) Analysis of interaction between objective antibody and the FcγR was carried out using Biacore T100 (GE Healthcare). HBS-EP+ (GE Healthcare) was used as the running buffer, and the measurement temperature was set to 25° C. Chips produced by immobilizing the antigen peptide by the amine coupling method to a Series S Sencor Chip CM5 (GE Healthcare), or alternatively, chips produced by allowing preliminarily biotinylated antigen peptides to interact with and immobilize onto a Series S Sensor Chip SA (certified) (GE Healthcare) were used. Antibodies of interest were captured onto an antigen peptide-immobilized chip, and allowed to interact to each FcγR diluted with running buffer. To regenerate and repeatedly use the chip, the antibodies captured on the chip were washed off by reacting 10 mM glycine-HCl, pH 1.5.

[20] = target: T7, FcγRIIIa extracellular domain with …; test: as above; remark: listed apart in the source
Method: GpH7-TA8 (SEQ ID NO: 33) and GpH7-B12 (SEQ ID NO: 12) resulting from the introduction of P329R into GpH7-TA7 and GpH7-B3, respectively, were prepared according to the method described in Reference Example 1.
as §1

[21] = target: T7, FcγRIIIa extracellular domain with …; test: SPR (Biacore), ratio of KD values for FcγRIIIa
Source text: GpH7-A57 (SEQ ID NO: 40) resulting from the introduction of all of S239D, A330L, and I332E into GpH7-A5; GpH7-B78 (SEQ ID NO: 41) resulting from the introduction of all of S239D, A330L, and I332E into GpH7-B3; GpH7-TA7 (SEQ ID NO: 31) resulting from the introduction of all of L234Y, G236W, and S298A into GpH7-A5; and GpH7-TA45 (SEQ ID NO: 32) resulting from the introduction of all of L234Y, G236W, and S298A into GpH7-B3. […] The prepared antibodies were compared for the FcγRIIIa-binding activity using, as an indicator, KD for FcγRIIIa that was determined according to the method described in Reference Example 2.
as §1

[22] = target: T7, FcγRIIIa extracellular domain with …; test: SPR (Biacore), antibody captured, FcγRIIIa as analyte, 1:1 Langmuir kinetic fit
Method: The prepared antibodies were compared for the FcγRIIIa-binding activity using, as an indicator, KD for FcγRIIIa that was determined according to the method described in Reference Example 2.
as §1
The FcγR-binding activity of each antibody was assessed primarily using as an indicator the FcγR-binding activity and dissociation constant for FcγR.

T5 sequence (P12314 16-292): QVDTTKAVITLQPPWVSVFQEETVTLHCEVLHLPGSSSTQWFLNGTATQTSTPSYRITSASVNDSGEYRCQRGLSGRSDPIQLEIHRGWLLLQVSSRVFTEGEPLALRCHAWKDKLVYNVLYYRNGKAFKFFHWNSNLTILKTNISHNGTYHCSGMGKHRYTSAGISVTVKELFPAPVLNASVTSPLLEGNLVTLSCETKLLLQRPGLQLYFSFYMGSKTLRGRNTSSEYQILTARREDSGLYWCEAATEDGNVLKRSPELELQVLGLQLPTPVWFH
T7 sequence (P08637 17-208): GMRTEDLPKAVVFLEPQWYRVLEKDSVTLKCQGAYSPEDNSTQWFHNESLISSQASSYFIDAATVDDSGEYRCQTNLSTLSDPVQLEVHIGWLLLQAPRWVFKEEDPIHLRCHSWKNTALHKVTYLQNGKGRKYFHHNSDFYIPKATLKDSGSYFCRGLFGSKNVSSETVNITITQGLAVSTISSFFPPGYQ
T1 sequence (P08637 17-208): as above
T3 sequence (P08637 17-208 F176V limits assumed): as the sequence (P08637 17-208) above, with F160V counted along it

Kd (FcgRIIIa F [1]): 9.1 nM
Kd (FcgRIIa R [2]): 340 nM
Kd (FcgRIIIa V [3]): 3.1 nM
Kd (FcgRIIa H [4]): 690 nM
Kd (FcgRIa [5]): 0.073 nM
Kd (FcgRIIb [6]): 630 nM
Kd (FcgRIIIa F [7]): 9.1 nM
Kd (FcgRIIa R [8]): 340 nM
Kd (FcgRIIIa V [9]): 3.1 nM
Kd (FcgRIIa H [10]): 690 nM
Kd (FcgRIa [11]): 0.073 nM
Kd (FcgRIIb [12]): 630 nM
Kd (FcgRIIIa F [13]): 9.1 nM
Kd (FcgRIIa R [14]): 340 nM
Kd (FcgRIIIa V [15]): 3.1 nM
Kd (FcgRIIa H [16]): 690 nM
Kd (FcgRIa [17]): 0.073 nM
Kd (FcgRIIb [18]): 630 nM
B1: H240-Kn032/H240-Hl032/L73-k0 (antibody, human IgG1, kappa)
heavy 1: QDQLVQSGAEVKKPGASVKVSCKASGFNIKDTYIQWVRQAPGQGLEWMGRIDPLRKQTKYREKFEGRVTITADTSTNTAYMELSSLRSEDTAVYYCVRSGREFDYWGQGTLVTVSSASTKGPSVFPLAPSSKSTSGGTAALGCLVKDYFPEPVTVSWNSGALTSGVHTFPAVLQSSGLYSLSSVVTVPSSSLGTQTYICNVNHKPSNTKVDKKVEPKSCDKTHTCPPCPAPELLGGPDVFLFPPKPKDTLMISRTPEVTCVVVDVSHEDPEVKFNWYVDGVEVHNAKTKPREEQYNSTYRVVSVLTVLHQDWLNGKEYKCKVSNKALPLPEEKTISKAKGQPREPQVCTLPPSRDELTKNQVSLWCLVKGFYPSDIAVEWESNGQPENNYKTTPPVLDSDGSFFLYSKLTVDKSRWQQGNVFSCSVMHEALHNHYTQKSLSLSP
heavy 2: B1 heavy 1 with C348Y, D355C, W365S, L367A, Y406V
light: DIQMTQSPSSLSASVGDRVTITCRASQDIHKYIAWYQQKPGQAPRLLIQYTSTLQPGVPSRFSGSGSGTDYTFTISSLQPEDIATYYCLQYEQLRTFGGGTKVEIKRTVAAPSVFIFPPSDEQLKSGTASVVCLLNNFYPREAKVQWKVDNALQSGNSQESVTEQDSKDSTYSLSSTLTLSKADYEKHKVYACEVTHQGLSSPVTKSFNRGEC
notes: Anti-EREG IgG1 called homodimerized: S239D/A330L/I332E in both H chains, on the knobs-into-holes pair Kn033/Hl033

FcγRIIIa BINDING ACTIVITY (relative) [20]: 150 relative, GpH7-A5/GpH7-B3/GpL16-k0 = 100
B3: GpH7-TA8/GpH7-B3/GpL16-k0 (antibody, human IgG1, kappa)
heavy 1: QVQLVQSGAEVKKPGASVTVSCKASGYTFTDYEMHWIRQPPGEGLEWIGAIDPKTGDTAYSESFQDRVTLTADKSTSTAYMELSSLTSEDTAVYYCTRFYSYTYWGQGTLVTVSSASTKGPSVFPLAPSSKSTSGGTAALGCLVKDYFPEPVTVSWNSGALTSGVHTFPAVLQSSGLYSLSSVVTVPSSSLGTQTYICNVNHKPSNTKVDKKVEPKSCDKTHTCPPCPAPEYLWGPSVFLFPPKPKDTLMISRTPEVTCVVVDVSHEDPEVKFNWYVDGVEVHNAKTKPREEQYNATYRVVSVLTVLHQDWLNGKEYKCKVSNKALRAPIEKTISKAKGQPREPQVYTLPPSRKELTKNQVSLTCLVKGFYPSDIAVEWESNGQPENNYKTTPPVLDSDGSFFLYSKLTVDKSRWQQGNVFSCSVMHEALHNRYTQKSLSLSP
heavy 2: not shown
light: DIVMTQSPLSLPVTPGEPASISCQASESLVHSNRNTYLHWYLQKPGQSPQLLIYKVSNRFSGVPDRFSGSGSGTDFTLKISRVEAEDVGVYYCSQNTHVPPTFGQGTKVEIERTVAAPSVFIFPPSDEQLKSGTASVVCLLNNFYPREAKVQWKVDNALQSGNSQESVTEQDSKDSTYSLSSTLTLSKADYEKHKVYACEVTHQGLSSPVTKSFNRGEC
notes: Heterodimerized anti-glypican-3 IgG1 variant

FcγR BINDING ACTIVITY (relative FcγRIIIa binding) [19]: 48 relative, GpH7-A5/GpH7-B3/GpL16-k0 = 100
KD ratio 1 (KD of GpH7-G1d/GpL16-k0 divided by KD of the antibody) [21]: 0.37 fold
KD ratio 2 (KD of GpH7-A5/GpH7-B3/GpL16-k0 divided by KD of the antibody) [21]: 0.49 fold
Kd [22]: 3300 nM
B4: GpH7-TA7/GpH7-TA45/GpL16-k0 (antibody, human IgG1, kappa)
heavy 1: B3 heavy 1 with R327P
heavy 2: B3 heavy 1 with R327P, K354D, R433H, K437E
light: B3 light
notes: the chains differ only in D356K/H435R against K439E

Further lines, the binder ahead of its results:

B2: GpH7-A5/GpH7-TA45/GpL16-k0 (antibody, human IgG1, kappa)
heavy 1: not shown
heavy 2: B3 heavy 1 with R327P, K354D, R433H, K437E
light: B3 light
notes: as for B3
FcγR BINDING ACTIVITY (relative FcγRIIIa binding) [19]: 225 relative, GpH7-A5/GpH7-B3/GpL16-k0 = 100

B5: GpH7-TA7/GpH7-B12/GpL16-k0 (antibody, human IgG1, kappa)
heavy 1: B3 heavy 1 with R327P
heavy 2: not shown
light: B3 light
notes: as for B3
FcγRIIIa BINDING ACTIVITY (relative) [20]: 11 relative, GpH7-A5/GpH7-B3/GpL16-k0 = 100
